Data: the supplement of paper PMC9170038

Key:
Details in all cases: FMN input: 0 or 200 uM; Eterna round: R93 (includes R88 designs)
MS2 coat protein [1] = experiment: apparent KD of MS2 coat protein, switch OFF state (with FMN for OFF switches, without FMN for ON switches); designed switch direction (-1 OFF switch, 1 ON switch): 1; higher = weaker reporter binding
In short: (§1)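 Apparent KD stands for the median, per design, of fits to normalised cluster binding curves. The curves came from titrating on-chip-transcribed RNA switches on Illumina sequencing clusters with SNAP-549-labelled MS2 coat protein, twofold from 0.7 or 1.5 nM to 3 µM. Buffer was 100 mM Tris-HCl pH 7.5, 80 mM KCl, 4 mM MgCl2, without or with constant ligand.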

MS2 coat protein [2] = experiment: apparent KD of MS2 coat protein, switch ON state; designed switch direction (-1 OFF switch, 1 ON switch): 1; higher = weaker reporter binding
In short: as §1

MS2 coat protein [3] = experiment: apparent KD of MS2 coat protein, switch OFF state (with FMN for OFF switches, without FMN for ON switches); designed switch direction (-1 OFF switch, 1 ON switch): -1; higher = weaker reporter binding
In short: as §1

MS2 coat protein [4] = experiment: apparent KD of MS2 coat protein, switch ON state; designed switch direction (-1 OFF switch, 1 ON switch): -1; higher = weaker reporter binding
In short: as §1

| Sequence | apparent KD of MS2 coat protein (MS2 coat protein [1]) | apparent KD of MS2 coat protein (MS2 coat protein [2]) | apparent KD of MS2 coat protein (MS2 coat protein [3]) | apparent KD of MS2 coat protein (MS2 coat protein [4]) |
| --- | --- | --- | --- | --- |
| AAAAAAAAGGGUGAGGAUAUCGAAAAAAAAACAUGAGGAUCACCCAUGUGAAAAAAAAAAAAAUGCGAGAAGGCACUAAAAAAAAA [Same State 2.3] | 0.104 µM | 0.0232 µM |  |  |
| AAAAAACAUGAGGAUCACCCAUGUAAAAAAAACACAGGAUAUCCCUUUUUUAAAUGAAAAGGAGAAGGGUGAAAAA [Nob's Hobby 9 - Jieux - Same State 1] | 0.024 µM | 0.0226 µM |  |  |
| AAAAAACAUGAGGAUCACCCAUGUAAAAAUAUGGGAGGAUAUGGAAACACGAAAGUGAAACCAGAAGGCUCAAAAG [77%, Mat - Mod of Eli, 17] | 0.0784 µM | 0.0212 µM |  |  |
| AAGAAACAUGAGGAUCACCCAUGUAAAUUUAAGAGAGGAUAUCGUACAUGGAAGAUUUAACGAGAAGGCUCUAGAA [Pariah 2 (MS2 Riboswitches - Same State 1)] | 0.0369 µM |  |  |  |
| CUGGAGUCAGGAUAUACGAACAUGUCGCCAGAUGUCAAGGUACAUGAGGAUCACCCAUGUAGAAGGGAGGAGAA [salish99-Ex2-33] |  |  | 0.0848 µM | 0.0952 µM |
| CUUAUGUGAGGAUAUCAGUAGUAAAAAAAAAAAAUUACUACUGAGAAGGCACAUGAGGAUCACCCAUGUGCAUU [EX4 322: Super Stable 22] |  |  | 0.0388 µM | 0.0303 µM |
| GAAAACAGAGGAUAUACGAAAUUGACACGAAAAGUGCAGGGACAUGAGGAUCACCCAUGUAGAAGGCUGAAGAA [Meechl MS2... 60% 1] |  |  | 0.0482 µM | 0.0277 µM |
| GAAAAGGCAGGAUAUGCAGGAUAUAGAAGGAGGAUAUAGAGACAUGAGGAUCACCCAUGUAGAAGGGCCAAAAG [salish99-ex2-11] |  |  | 0.0323 µM | 0.0426 µM |
| GAAAAGUCAGGAUAUGCGAAGGCGUCUGAUAGACGAGGCUAGCAGAAGGGACAUGAGGAUCACCCAUGUGAAAG [Mat - Exclusion 4 - Eli mod - D87] |  |  | 0.128 µM | 0.0546 µM |
| GAAAAGUCAGGAUAUGUACAAAAUAAAAUAAAAAUAAAAGUACAGAAGGGACAUGAGGAUCACCCAUGUAAAAA [Mat - Exclusion 4 - Mayanna - D119] |  |  | 0.0498 µM | 0.0473 µM |
| GAAAAGUGAGGAUAUACAUGAGGAUCACCCAUGUGUAUAAAAAAUUACACAAAAGAAAGUAGAAGGCACUAAAG [Mat - Exclusion 3 - Mayanna mod - D113] |  |  | 0.0265 µM | 0.0177 µM |
| GAAAGUGGAGGAUAUACAUGAGGAUCACCCAUGUGUAAAAAUAAAUACACAAAAGAAAGUAGAAGGCCACAAAG [Mat - Exclusion 3 - Mayanna mod - D118] |  |  | 0.125 µM | 0.0306 µM |
| GAAGAACAUGAGGAUCACCCAUGUCAGGAUAUGCGCAAGGGAAUAAUAACUUGCGGAAGCAGAAGGGACAAGAA [Ex 1 May 50] |  |  | 0.0359 µM | 0.0189 µM |
| GAAUGACUAGGAUAUACAUGAGGAUCACCCAUGUGUUAAAAUAAAUACACAAAAGAAAGUAGAAGGAGUCAAAG [Mat - Exclusion 3 - Mayanna mod - D126] |  |  | 0.0503 µM | 0.021 µM |
| GAUAGGCGAGGAUAUACAUGAGGAUCACCCAUGUAAGUAAGCCUGGCUGAAACUGAAUGUAGAAGGCGCAAAUU [Mat - Exclusion 3 - Neo mod - D70] |  |  | 0.0677 µM | 0.0178 µM |
| GCUGGCGAAGGAUAUACAUGAGGAUCACCCAUGUGAGAGAAAAAAGUGAGAAAGAAAAGUAGAAGGUCGUUAGG [salish99-ex3-96] |  |  | 0.0704 µM | 0.0317 µM |
| GCUGUGGAAGGAUAUACAUGAGGAUCACCCAUGUGAGAGAAAAAAGUGAGAAAGAAAAGUAGAAGGUCCGUAGG [salish99-ex3-98] |  |  | 0.066 µM | 0.0403 µM |

| Sequence | apparent KD of MS2 coat protein (MS2 coat protein [1]) | apparent KD of MS2 coat protein (MS2 coat protein [2]) | apparent KD of MS2 coat protein (MS2 coat protein [3]) | apparent KD of MS2 coat protein (MS2 coat protein [4]) |
| --- | --- | --- | --- | --- |
| GCUUGGCAAGGAUAUACAUGAGGAUCACCCAUGUGAGAGAAAAAAGUGAGAAAGAAAAGUAGAAGGUGCUGAGG [salish99-ex3-109] |  |  | 0.0822 µM | 0.0426 µM |
| GGAAAACAUGAGGAUCACCCAUGUAAGGAUAUGCUAGGGAGGGAAAAAAUUUCGCCAGGCAGAAGGUACUAAAG [Janelle Amethyst 18 Mod 6 - Jieux - Exclusion 1] |  |  | 0.0447 µM | 0.0235 µM |
| GGAAAACAUGAGGAUCACCCAUGUCAGGAUAUGUGAAAAAAAAAAAAAAGAAAAGAAAACAGAAGGGACAAAAG [amethyst 6] |  |  | 0.0232 µM | 0.0808 µM |
| GGUUGGCGAGGAUAUACAUGAGGAUCACCCAUGUGAGAGAAAAAAGUGAGUAAGAAAAGUAGAAGGCGCUGACG [salish99-ex3-33] |  |  | 4.71 µM | 0.0499 µM |
| GGUUGGCGAGGAUAUACAUGAGGAUCACCCAUGUGAGAGAAAAAAGUGAUAAAGAAAAGUAGAAGGCGCUGACG [salish99-ex3-32] |  |  | 2.47 µM | 0.12 µM |
| GGUUGUCGAGGAUAUACAUGAGGAUCACCCAUGUGAGAGAAAAAAGUGAGAAAGAAAAGUAGAAGGUGGUGACG [salish99-ex3-71] |  |  | 0.0929 µM | 0.0576 µM |
| GUCCUACAUGAGGAUCACCCAUGUCAGGAUAUGCACCGGUUGCUUUAGACCGGUAAAGGCAGAAGGGACGGGUG [Orzadima] |  |  | 0.0198 µM | 0.0232 µM |
| UAAAAACAUGAGGAUCACCCAUGUCAGGAUAUGUGCUUAAUAAAAAAAUAAAUAACAAGCAGAAGGGACAAUAA [JR_Exc001_Sub201] |  |  | 0.0344 µM | 0.035 µM |
| UAAAAUAAAGGAUAUAAAACAGAGGAUAUACAUAAAUAAAAACAUGAGGAUCACCCAUGUAGAAGGCUGAAAAU [Meechl Ex2 R2 m1] |  |  | 0.0284 µM | 0.029 µM |
| UAAAGACAUGAGGAUCACCCAUGUGAGGAUAUCGGUGACUAUAAAAAAAAAUAGUCACCGAGAAGGCACAGAAA [JR_Exc001_Sub301] |  |  | 0.117 µM | 0.0432 µM |
| UACAUACAUGAGGAUCACCCAUGUCAGGAUAUGUGCUCAGUGAAAAACAAAGAAACAAGCAGAAGGGACACUAA [JR_Exc001_Sub203] |  |  | 0.0375 µM | 0.0418 µM |
| UAGAACCUAGGAUAUACUUGGGAAACUAAUGCAAAGAUAUAACAUGAGGAUCACCCAUGUAGAAGGAGGAGUAA [JR_Exc002_Sub019] |  |  | 0.132 µM | 0.0845 µM |
| UAUAGACAUGAGGAUCACCCAUGUGAGGAUAUCAGUGACUACAGGACAUCACGUACAAUGAGAAGGCACAGAAA [JR_Exc001_Sub015] |  |  | 0.0452 µM | 0.0347 µM |
| UCGAUGCGAGGAUAUACUAAGGCAACUACUGCAGCUCAAAAACAUGAGGAUCACCCAUGUAGAAGGCGCAUAUA [JR_Exc002_Sub304] |  |  | 0.0181 µM | 0.0196 µM |
| UUAGAACAUGAGGAUCACCCAUGUGAGGAUAUGCAAUACUAGCGACAAGAUCGUUAUAGCAGAAGGCACGUAGU [JR_EXc001_Sub807] |  |  | 0.0645 µM | 0.0386 µM |
| UUUAUGUGAGGAUAUACGAAUAGUAAGUAAGUAUUACAGACGUAGAAGGCACAUGAGGAUCACCCAUGUGAAUA [JR_Exc004_Sub307] |  |  | 0.0588 µM | 0.0327 µM |
